# B1: serum derived human BChE: serum derived human butyrylcholinesterase (protein, UniProt P06276 29-602, looked up)
# Cholinesterase: EDDIIIATKNGKVRGMNLTVFGGTVTAFLGIPYAQPPLGRLRFKKPQSLTKWSDIWNATKYANSCCQNIDQSFPGFHGSEMWNPNTDLSEDCLYLNVWIPAPKPKNATVLIWIYGGGFQTGTSSLHVYDGKFLARVERVIVVSMNYRVGALGFLALPGNPEAPGNMGLFDQQLALQWVQKNIAAFGGNPKSVTLFGESAGAASVSLHLLSPGSHSLFTRAILQSGSFNAPWAVTSLYEARNRTLNLAKLTGCSRENETEIIKCLRNKDPQEILLNEAFVVPYGTPLSVNFGPTVDGDFLTDMPDILLELGQFKKTQILVGVNKDEGTAFLVYGAPGFSKDNNSIITRKEFQEGLKIFFPGVSEFGKESILFHYTDWVDDQRPENYREALGDVVGDYNFICPALEFTKKFSEWGNNAFFYYFEHRSSKLPWPEWMGVMHGYEIEFVFGLPLERRDNYTKAEEILSRSIVKRWANFAKYGNPNETQNNSTSWPVFKSTEQKYLTLNTESTRIMTKLRAQQCRFWTSFFPKVLEMTGNIDEAEWEWKAGFHRWNNYMMDWKNQFNDYTSKKESCVGL
# B2: fetal bovine AChE: serum derived fetal bovine AChE; heterologous FBS-AChE in the monkey study (protein, UniProt P23795 31-613, looked up)
# Acetylcholinesterase: EGPEDPELLVMVRGGRLRGLRLMAPRGPVSAFLGIPFAEPPVGPRRFLPPEPKRPWPGVLNATAFQSVCYQYVDTLYPGFEGTEMWNPNRELSEDCLYLNVWTPYPRPSSPTPVLVWIYGGGFYSGASSLDVYDGRFLTQAEGTVLVSMNYRVGAFGFLALPGSREAPGNVGLLDQRLALQWVQENVAAFGGDPTSVTLFGESAGAASVGMHLLSPPSRGLFHRAVLQSGAPNGPWATVGVGEARRRATLLARLVGCPPGGAGGNDTELVACLRARPAQDLVDHEWRVLPQESVFRFSFVPVVDGDFLSDTPEALINAGDFHGLQVLVGVVKDEGSYFLVYGAPGFSKDNESLISRAQFLAGVRVGVPQASDLAAEAVVLHYTDWLHPEDPARLREALSDVVGDHNVVCPVAQLAGRLAAQGARVYAYIFEHRASTLSWPLWMGVPHGYEIEFIFGLPLEPSLNYTIEERTFAQRLMRYWANFARTGDPNDPRDPKAPQWPPYTAGAQQYVSLNLRPLEVRRGLRAQACAFWNRFLPKLLSATDTLDEAERQWKAEFHRWSSYMVHWKNQFDHYSKQDRCSDL
# Key:
# [1] = mice, earlier reports; cited from earlier work
# anti-AChE antibody = assay: Immunogenicity in rhesus macaques: anti-AChE antibody formation by ELISA after repeated monthly administration; type: in vivo; conditions: monthly intervals, no adjuvant
# Excerpt: Anti-AChE antibody levels elicited by PEGylated rHuAChE, were compared to those induced by nonmodified rHuAChE or FBS-AChE, following their administration to rhesus macaques. To this end, non-modified or PEG-modified AChE or the heterologous FBS-AChE (no adjuvant included) were repeatedly administered to monkeys at monthly intervals, and anti-AChE antibody formation was monitored by ELISA (FIG. 8).
Molecule,MRT (mean residual time) [1],development of anti-AChE antibody after repeated administrations (anti-AChE antibody)
horse BChE: serum derived horse butyrylcholinesterase [reference compound],"approximately 1,400 minutes",–
B1,"approximately 1,400 minutes",–
B2,"approximately 1,400 minutes",following the third administration

# Reference: patent publication US8980609B2, “Uniformly conjugated serine hydrolases” (Israel Institute for Biological Research, priority 2005, dated 2015)
